Values of other authors in PMC12428796.

What was measured:
Details in all cases: No direct protein-aptamer binding assay in this paper (only cell uptake by flow cytometry/confocal in MIA PaCa-2 and L929, with anti-nucleolin blocking)
[1] = biological target: T1, cholecystokinin B receptor (CCKBR) (UniProt P32239)
T1 sequence (P32239 whole entry, looked up): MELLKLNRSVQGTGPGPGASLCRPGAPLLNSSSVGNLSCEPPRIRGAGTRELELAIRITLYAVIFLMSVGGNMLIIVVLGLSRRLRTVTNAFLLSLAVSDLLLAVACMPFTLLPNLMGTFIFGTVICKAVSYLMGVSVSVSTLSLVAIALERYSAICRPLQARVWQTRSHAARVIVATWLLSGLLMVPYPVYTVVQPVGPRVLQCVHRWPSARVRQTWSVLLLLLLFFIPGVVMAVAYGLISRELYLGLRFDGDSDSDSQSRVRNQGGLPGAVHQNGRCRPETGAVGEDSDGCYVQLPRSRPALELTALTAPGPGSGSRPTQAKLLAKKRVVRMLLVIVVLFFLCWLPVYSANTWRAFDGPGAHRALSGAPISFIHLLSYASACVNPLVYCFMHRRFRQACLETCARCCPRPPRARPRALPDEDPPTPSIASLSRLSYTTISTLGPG

[2] = biological target: nucleolin (UniProt P19338)
Chain of nucleolin (P19338 whole entry): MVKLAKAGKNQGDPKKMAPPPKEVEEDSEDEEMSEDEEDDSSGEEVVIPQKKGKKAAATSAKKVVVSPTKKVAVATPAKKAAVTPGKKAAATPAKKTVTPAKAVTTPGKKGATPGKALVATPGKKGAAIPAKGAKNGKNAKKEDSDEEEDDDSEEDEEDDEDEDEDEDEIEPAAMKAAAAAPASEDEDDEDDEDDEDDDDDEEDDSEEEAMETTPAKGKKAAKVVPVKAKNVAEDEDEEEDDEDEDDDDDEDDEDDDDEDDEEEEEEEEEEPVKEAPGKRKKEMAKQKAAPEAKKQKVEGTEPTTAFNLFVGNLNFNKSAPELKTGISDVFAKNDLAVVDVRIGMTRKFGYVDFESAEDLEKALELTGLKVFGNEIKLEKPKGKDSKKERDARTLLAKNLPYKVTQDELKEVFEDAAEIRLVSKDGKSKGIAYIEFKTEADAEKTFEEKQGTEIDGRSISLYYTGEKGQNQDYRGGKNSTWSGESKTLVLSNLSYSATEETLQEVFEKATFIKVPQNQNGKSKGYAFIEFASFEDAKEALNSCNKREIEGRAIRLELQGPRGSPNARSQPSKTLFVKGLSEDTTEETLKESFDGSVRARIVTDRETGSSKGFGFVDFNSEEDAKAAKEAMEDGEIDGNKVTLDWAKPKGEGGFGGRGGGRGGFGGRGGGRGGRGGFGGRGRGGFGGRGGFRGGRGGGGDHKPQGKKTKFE

[3] = biological target: matrix metalloproteinase 14 (MMP14) (UniProt P50281)
[4] = biological target: transferrin receptor 1 (TfR1) (UniProt P02786)
Chain of transferrin receptor 1 (TfR1) (P02786 whole entry): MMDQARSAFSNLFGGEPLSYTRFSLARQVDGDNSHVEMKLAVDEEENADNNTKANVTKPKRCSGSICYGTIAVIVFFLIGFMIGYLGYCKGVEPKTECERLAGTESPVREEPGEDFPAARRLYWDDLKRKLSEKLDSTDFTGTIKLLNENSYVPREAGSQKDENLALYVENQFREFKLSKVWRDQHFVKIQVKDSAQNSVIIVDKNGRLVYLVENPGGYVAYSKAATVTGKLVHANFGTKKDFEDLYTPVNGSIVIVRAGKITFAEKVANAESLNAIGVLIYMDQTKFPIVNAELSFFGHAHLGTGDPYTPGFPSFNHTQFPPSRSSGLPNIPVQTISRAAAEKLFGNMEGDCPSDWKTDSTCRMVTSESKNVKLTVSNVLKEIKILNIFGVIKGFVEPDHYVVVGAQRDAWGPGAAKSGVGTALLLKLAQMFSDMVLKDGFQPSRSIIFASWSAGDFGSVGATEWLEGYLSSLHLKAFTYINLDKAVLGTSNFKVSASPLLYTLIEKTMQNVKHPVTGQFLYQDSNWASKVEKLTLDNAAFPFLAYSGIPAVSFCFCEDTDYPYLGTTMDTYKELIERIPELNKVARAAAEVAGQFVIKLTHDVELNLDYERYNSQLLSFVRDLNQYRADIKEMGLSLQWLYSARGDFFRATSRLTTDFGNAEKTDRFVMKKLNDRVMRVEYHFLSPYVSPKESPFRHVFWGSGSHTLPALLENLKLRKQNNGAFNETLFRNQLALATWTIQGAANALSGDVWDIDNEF

CATGGTGCAGGTGTGGCTGGGATTCATTTGCCGGTGCTGGTGCGTCCGCGGCCGCTAATCCTGTTC [AP1153]
Kd [1]: 0.206 nM

GGTGGTGGTGGTGTTGGTGGTGGTGG [AS1411]
Kd [2]: 16.4 nM

AGGGCCCGACGTGACGGCACGTCGGATATCTCATGCGTGT [M17]
Kd [3]: 4.98 nM

ACTCATAGGGTTAGGGGCTGCTGGCCAGATACTCAGATGGTAGGGTTACTATGAGC [XQ-2D]
Kd [4]: 55 nM
